Data on two proteins can be found in US20230024933.

Data set [1] deals with T1, phosphoserine substrate peptide RRApSVA.
T1 chain: RRASVA

For data set [2], the target named is histone γH2A.X^pY142, endogenous in primary murine fibroblast cultures, P27661.
Data set [3] addresses T2, phosphotyrosine substrate peptide ENDpYINASL.
T2 chain: ENDYINASL

B1: mutant EYA1A in which exon 10 had been removed (EYA1AΔe10) (protein)
chain: MLLFPQVAVKTEPMSSSETASTTADGSLNNFSGSAIGSSSFSPRPTHQFSPPQIYPSNRPYPHILPTPSSQTMAAYGQTQFTTGMQQATAYATYPQPGQPYGISSYGALWAGIKTEGGLSQSQSPGQTGFLSYGTSFSTPQPGQAPYSYQMQGSSFTTSSGIYTGNNSLTNSSGFNSSQQDYPSYPSFGQGQYAQYYNSSPYPAHYMTSSNTSPTTPSTNATYQLQEPPSGITSQAVTDPTAEYSTIHSPSTPIKDSDSDRLRRGSDGKSRGRGRRNNNPSPPPDSDLERVFIWDLDETIIVFHSLLTGSYANRYGRECDQVHIDDVSSDDNGQDLSTYNFGTDGFPAAATSANLCLATGVRGGVDWMRKLAFRYRRVKEIYNTYKNNVGGLLGPAKREAWLQLRAEIEALTDSWLTLALKALSLIHSRTNCVNILVTTTQLIPALAKVLLYGLGIVFPIENIYSATKIGKESCFERIIQRFGRKVVYVVIGDGVEEEQGAKKHAMPFWRISSHSDLMALHHALELEYL
B1: in data set [1], the “serine phosphatase activity (dephosphorylation assay)” value is given as “dephosphorylation assays using the synthetic serine phosphatase substrate RRApSVA demonstrated superior serine phosphatase activity”. Further, the “γH2A.X^pY142 foci per nucleus after NCS exposure” value in data set [2] is “deletion of EYA1A critical exon 10 (EYA146e10) normalized premature γH2A.X^pY142 dephosphorylation and γH2A.X clearance”.

B2: EYA1 isoform A (human splice variant EYA1A, exon 10 included) (protein)
chain: MLLFPQVAVKTEPMSSSETASTTADGSLNNFSGSAIGSSSFSPRPTHQFSPPQIYPSNRPYPHILPTPSSQTMAAYGQTQFTTGMQQATAYATYPQPGQPYGISSYGALWAGIKTEGGLSQSQSPGQTGFLSYGTSFSTPQPGQAPYSYQMQGSSFTTSSGIYTGNNSLTNSSGFNSSQQDYPSYPSFGQGQYAQYYNSSPYPAHYMTSSNTSPTTPSTNATYQLQEPPSGITSQAVTDPTAEYSTIHSPSTPIKDSDSDRLRRGSDGKSRGRGRRNNNPSPPPDSDLERVFIWDLDETIIVFHSLLTGSYANRYGRDPPTSVSLGLRMEEMIFNLADTHLFFNDLEECDQVHIDDVSSDDNGQDLSTYNFGTDGFPAAATSANLCLATGVRGGVDWMRKLAFRYRRVKEIYNTYKNNVGGLLGPAKREAWLQLRAEIEALTDSWLTLALKALSLIHSRTNCVNILVTTTQLIPALAKVLLYGLGIVFPIENIYSATKIGKESCFERIIQRFGRKVVYVVIGDGVEEEQGAKKHAMPFWRISSHSDLMALHHALELEYL
On to B2, for which the “tyrosine phosphatase activity (dephosphorylation assay with phosphorylated peptide)” value in data set [3] is listed as “confirmed increased tyrosine phosphatase activity of EYA1A”. In data set [2], the “γH2A.X^pY142 foci per nucleus after NCS exposure” value was “EYA1A overexpression induced premature γH2A.X^pY142 dephosphorylation and clearance of DSBs”.
